Target: T4 capsid (empty HocΔSocΔ head from the 10-amber.13-amber.HocΔ.SocΔ T4 mutant) (bacteriophage T4) (UniProt P19896)
Experiment: co-sedimentation

Cpf1-Soc showed a stoichiometry N (molecules per capsid) of 450.
Work on Cre-Hoc yielded a stoichiometry N (molecules per capsid) of 95.
For Cre-Soc, the stoichiometry N (molecules per capsid) was 630.
With GFP-Soc the stoichiometry N (molecules per capsid) was 660.
For NLS-Cas9-Soc, the stoichiometry N (molecules per capsid) was 550.
Work on RGD-Hoc yielded a stoichiometry N (molecules per capsid) of 85.
With Soc-RGD the stoichiometry N (molecules per capsid) was 710.
In the case of Soc-TAT, the stoichiometry N (copies per capsid) is reported as 520 and the stoichiometry N (molecules per capsid) is reported as 750.
With β-Gal-Soc the stoichiometry N (molecules per capsid) was 320.

Source: article PMC10229621
